Data taken from patent US20140037624A1 (Genentech, published 2014).

T1: human FGFR4 (recombinant, construct not stated; SPR, FGFR4 ELISA, receptor-binding assay) (human, UniProt P22455 22-369, limits assumed)
T1 construct: Whole exemplary entry named
T1 sequence: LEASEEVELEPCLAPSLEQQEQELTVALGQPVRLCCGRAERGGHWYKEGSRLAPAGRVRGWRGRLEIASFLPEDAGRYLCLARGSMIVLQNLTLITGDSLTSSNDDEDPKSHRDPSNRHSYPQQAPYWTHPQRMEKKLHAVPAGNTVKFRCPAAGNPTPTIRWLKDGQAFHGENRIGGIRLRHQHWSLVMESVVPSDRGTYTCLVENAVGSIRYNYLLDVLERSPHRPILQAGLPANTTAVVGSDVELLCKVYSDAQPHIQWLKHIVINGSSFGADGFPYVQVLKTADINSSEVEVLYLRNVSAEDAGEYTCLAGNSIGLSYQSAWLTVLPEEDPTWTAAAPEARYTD


Experiments:
[1] = target: human FGFR4-FGFR1 chimeric construct on BaF3 cells (human, UniProt P11362 398-820, limits assumed); assay: cell-based or functional assay
[2] = target: T2, mouse complement C3 (ca. 37 kDa fragment, C3d, from mouse plasma) (mouse, UniProt P01027 1002-1303, limits assumed); assay: immunoprecipitation from NCR nude mouse plasma, SDS-PAGE
T2 construct: Native protein of plasma/serum, pulled down as a ca. 37 kDa band; also called mouse C3; mouse C3d

[3] = target: T3, cynomolgus FGFR4-Fc chimeric protein (cynomolgus monkey); assay: solid phase binding assay, LD1 on immobilized cFGFR4-Fc, OD 450 nm
T3 construct: also called cFGFR4

[4] = target: T4, cynomolgus monkey FGFR4 (SPR of FIG. 2B, construct not stated) (cynomolgus monkey); assay: surface plasmon resonance (table row 'Cynomolgus', column 'Kd (nM)')
T4 construct: also called cynomolgus FGFR4

[5] = target: T1, human FGFR4 (recombinant, construct not …); assay: surface plasmon resonance, compared with chLD1
Method: (§1) Affinity determinations were performed by surface plasmon resonance using a BIAcore™-2000. Approximately 50 RU of hLD1.vB IgG was immobilized in 10 mM Sodium Acetate pH 4.8 on a CM5 sensor chip and serial 2-fold dilutions of the FGFR4 (0.48-1000 nM) in PBST were injected at a flow rate of 30 μl/min. Each sample was analyzed with 4-minute association and 10-minute dissociation. After each injection the chip was regenerated using 10 mM glycine pH 1.7. Binding response was corrected by subtracting the RU from a flow cell with an irrelevant IgG immobilized at similar density. A 1:1 Languir model of simultaneous fitting of kon and koff was used for kinetics analysis.
As a first step in the humanization of LD1, the variable light and heavy domains of chLD1 were aligned with the human kappa I (huKI) and human VH subgroup III (huIII) variable domain frameworks used in trastuzumab (FIG. 10). Hypervariable regions from chLD1 were grafted into these human variable frameworks to generate a direct CDR-graft (hLD1.vA)^{15, 16}. […] Substitution of mouse sequence at various vernier positions in both the variable light and heavy domains was explored as a means to improve binding and led to the identification of three important mouse vernier positions in the LC: P44F, L46I and Y49S.

[6] = target: T1, human FGFR4 (recombinant, construct not …); assay: SPR (BIAcore-2000), antibody immobilized, human FGFR4 as analyte
Method: as §1
TABLE 3 Binding Kinetics of anti-FGFR4 antibody variants. The association and dissociation rates of human FGFR4 binding to immobilized antibody variants were measured using surface plasmon resonance.

[7] = target: T1, human FGFR4 (recombinant, construct not …); assay: FGFR4 ELISA (immobilized FGFR4), O.D. 450 nm against IgG concentration

T2 sequence (P01027 1002-1303 limits assumed): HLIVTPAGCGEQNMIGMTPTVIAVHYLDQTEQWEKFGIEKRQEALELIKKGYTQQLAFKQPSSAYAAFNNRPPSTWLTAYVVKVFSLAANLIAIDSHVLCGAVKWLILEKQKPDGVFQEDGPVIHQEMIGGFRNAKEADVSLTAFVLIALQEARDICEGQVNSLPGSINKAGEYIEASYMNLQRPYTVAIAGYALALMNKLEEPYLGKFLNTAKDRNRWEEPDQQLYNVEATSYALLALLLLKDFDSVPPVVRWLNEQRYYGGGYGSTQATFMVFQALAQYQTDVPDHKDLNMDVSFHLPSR

Binder	IC50 of inhibition of proliferation of BaF3/FGFR4/R1 cells in the presence of 5 nM FGF1 [1]	binding result [2]	EC50 (read off the curve) [3]	Kd [4]	fold weaker binding against chLD1 [5]	Kd [6]	koff [6]	EC50 (read off the curve) [7]
chimeric LD1 (murine LD1 variable domains with human kappa and human IgG1 constant domains) (antibody, V domains shown, also called chLD1; ChLD1) VH: EVQLQQPGAVLVRPGTSVKLSCKASGYTFTNHWMNWVKQRPGQGLEWIGMIHPSDSETTLDQKFKDKATLTVDKSSSTAYMQLNRPTSEDSAVYYCTRGDISLFDYWGQGTTVTVSS VL: DIQMTQTTSSLSASLGDRVTITCRTSQDISNFLNWYQQKPDGTFKILISYTSRLHSGVPSRFSGSGSGTDYSLTISTLEQEDFATYFCQQGNALPYTFGGGTKLEIE	17.4 nM	no binding	~0.04 µg/mL	0.8 nM				
hLD1.vB (humanized LD1 with light chain P44F, L46I, Y49S) (antibody, V domains shown) VH: EVQLVESGGGLVQPGGSLRLSCAASGYTFTNHWMNWVRQAPGKGLEWVGMIHPSDSETTLDQKFKDRFTISADTSKNTAYLQMNSLRAEDTAVYYCTRGDISLFDYWGQGTLVTVSS VL: DIQMTQSPSSLSASVGDRVTITCRTSQDISNFLNWYQQKPGKAFKILISYTSRLHSGVPSRFSGSGSGTDFTLTISSLQPEDFATYYCQQGNALPYTFGQGTKVEIK					~2 fold	0.97 nM	0.00028 s⁻¹	~4 µg/mL
hLD1.v22 (humanized and affinity matured LD1) (antibody, V domains shown) VH: EVQLVESGGGLVQPGGSLRLSCAASGYTFTNHWMNWVRQAPGKGLEWVGMILPVDSETTLEQKFKDRFTISADTSKNTAYLQMNSLRAEDTAVYYCTRGDISLFDYWGQGTLVTVSS VL: DIQMTQSPSSLSASVGDRVTITCRTSQDISNFLNWYQQKPGKAFKILISYTSRLHSGVPSRFSGSGSGTDFTLTISSLQPEDFATYYCQQGNALPYTFGQGTKVEIKR		no binding				0.043 nM	3.9e-05 s⁻¹	
